Measurements as given in patent US20160264649A1.

Legend:
Experiment in all cases: cell-based or functional assay
[1] = target: HIV-1 92RW008 Env (HIV-1)
[2] = target: HIV-1 92RW009 Env (HIV-1)
[3] = target: HIV-1 92RW020 Env (HIV-1)
[4] = target: HIV-1 92RW021 Env (HIV-1)
[5] = target: HIV-1 92RW024 Env (HIV-1)
[6] = target: HIV-1 92RW026 Env (HIV-1)
[7] = target: HIV-1 92UG031 Env (HIV-1)
[8] = target: HIV-1 92UG037 Env (HIV-1)
[9] = target: HIV-1 93RW029 Env (HIV-1)
[10] = target: HIV-1 93UG077 Env (HIV-1)
[11] = target: HIV-1 94KE105 Env (HIV-1)
[12] = target: HIV-1 94UG103 Env (HIV-1)
[13] = target: HIV-1 MGRM-A-002 Env (HIV-1)
[14] = target: HIV-1 MGRM-A-003 Env (HIV-1)
[15] = target: HIV-1 MGRM-A-006 Env (HIV-1)
[16] = target: HIV-1 MGRM-A-007 Env (HIV-1)
[17] = target: HIV-1 MGRM-A-009 Env (HIV-1)
[18] = target: HIV-1 MGRM-A-010 Env (HIV-1)
[19] = target: HIV-1 MGRM-A-011 Env (HIV-1)
[20] = target: HIV-1 MGRM-A-013 Env (HIV-1)
[21] = target: HIV-1 MGRM-A-014 Env (HIV-1)
HIV-1 VLGCA1 Env (HIV-1) = target: HIV-1 VLGCA1 Env (HIV-1)
[22] = target: HIV-1 Env of isolate 92UG031 (subtype A) (HIV-1)
[23] = target: HIV-1 Env of isolate 92WR020 (subtype A) (HIV-1)
[24] = target: HIV-1 Env of isolate 97ZA012 (subtype C) (HIV-1)
[25] = target: HIV-1 Env of isolate 98IN022 (subtype C) (HIV-1)
[26] = target: HIV-1 Env of isolate MG RM-C-022 (subtype C) (HIV-1)
[27] = target: HIV-1 Env of isolate MG RM-C-023 (subtype C) (HIV-1)
[28] = target: HIV-1 Env of isolate MGRM-AE-002 (subtype AE) (HIV-1)
[29] = target: HIV-1 Env of isolate MGRM-AE-008 (subtype AE) (HIV-1)
[30] = target: HIV-1 Env of isolate MGRM-Chronic-B-008 (subtype B) (HIV-1)
[31] = target: HIV-1 Env of isolate MGRM-Chronic-B-018 (subtype B) (HIV-1)
[32] = target: HIV-1 Env of isolate MGRM-Chronic-B-023 (subtype B) (HIV-1)
[33] = target: HIV-1 Env of isolate MGRM-D-003 (subtype D) (HIV-1)
[34] = target: HIV-1 Env of isolate MGRM-D-005 (subtype D) (HIV-1)
[35] = target: HIV-1 Env of isolate MGRM-D-013 (subtype D) (HIV-1)
[36] = target: HIV-1 Env of isolate MGRM-D-016 (subtype D) (HIV-1)
[37] = target: HIV-1 Env of isolate MGRM-D-020 (subtype D) (HIV-1)
[38] = target: HIV-1 Env of isolate MGRM-D-026 (subtype D) (HIV-1)
[39] = target: HIV-1 Env of isolate MGRM-D-028 (subtype D) (HIV-1)
[40] = target: HIV-1 Env of isolate MGRM-F1-006 (subtype F) (HIV-1)
[41] = target: HIV-1 Env of isolate MGRM-F1-010 (subtype F) (HIV-1)
[42] = target: HIV-1 Env of isolate MGRM-F1-013 (subtype F) (HIV-1)
[43] = target: HIV-1 Env of isolate MGRM-F1-020 (subtype F) (HIV-1)
[44] = target: HIV-1 Env of isolate VLGCA1 (subtype A) (HIV-1)
[45] = target: HIV-1 Env of pseudovirus isolate MGRM-G-006 (subtype G) (HIV-1)
[46] = target: HIV-1 Env of pseudovirus isolate MGRM-G-015 (subtype G) (HIV-1)
[47] = target: HIV-1 Env of pseudovirus isolate MGRM-G-017 (subtype G) (HIV-1)
[48] = target: HIV-1 Env of pseudovirus isolate MGRM-G-024 (subtype G) (HIV-1)
[49] = target: HIV-1 Env of pseudovirus isolate MGRM-G-027 (subtype G) (HIV-1)

2G12 (antibody) was tested. Which neutralization IC50 [1] did it give?
Its neutralization IC50 is 22.5 µg/mL.

And the neutralization IC50 [2]?
The neutralization IC50 was 26.1 µg/mL.

What about the neutralization IC50 [3] of the same substance?
Its neutralization IC50 is 0.48 µg/mL.

And the neutralization IC50 [4]?
The neutralization IC50 was greater than 50 µg/mL.

And the neutralization IC50 [5]?
Its neutralization IC50 is greater than 50 µg/mL.

What about the neutralization IC50 [6] of the same substance?
Its neutralization IC50 is 17.2 µg/mL.

What about the neutralization IC50 [7] of the same substance?
The neutralization IC50 was greater than 50 µg/mL.

What about the neutralization IC50 [8] of the same substance?
Its neutralization IC50 is 45.2 µg/mL.

What about the neutralization IC50 [9] of the same substance?
The neutralization IC50 was greater than 50 µg/mL.

And the neutralization IC50 [10]?
Its neutralization IC50 is greater than 50 µg/mL.

And the neutralization IC50 [11]?
The neutralization IC50 was 7.22 µg/mL.

And the neutralization IC50 [12]?
The neutralization IC50 was 48.1 µg/mL.

And the neutralization IC50 [13]?
The neutralization IC50 was greater than 50 µg/mL.

What about the neutralization IC50 [14] of the same substance?
The neutralization IC50 was greater than 50 µg/mL.

And the neutralization IC50 [15]?
Its neutralization IC50 is 13.8 µg/mL.

And the neutralization IC50 [16]?
The neutralization IC50 was greater than 50 µg/mL.

What about the neutralization IC50 [17] of the same substance?
The neutralization IC50 was 7.47 µg/mL.

What about the neutralization IC50 [18] of the same substance?
The neutralization IC50 was 17 µg/mL.

And the neutralization IC50 [19]?
Its neutralization IC50 is greater than 50 µg/mL.

What about the neutralization IC50 [20] of the same substance?
The neutralization IC50 was greater than 50 µg/mL.

What about the neutralization IC50 [21] of the same substance?
Its neutralization IC50 is greater than 50 µg/mL.

What about the neutralization IC50 (HIV-1 VLGCA1 Env (HIV-1)) of the same substance?
The neutralization IC50 was greater than 50 µg/mL.

Which IC50 (pseudovirus neutralization) [22] does the source give for VRC01 (antibody) here?
Its IC50 (pseudovirus neutralization) is 0.469 µg/mL.

What about the IC50 (pseudovirus neutralization) [23] of the same substance?
Its IC50 (pseudovirus neutralization) is 0.13 µg/mL.

And the IC50 [24]?
Its IC50 is 0.088 µg/mL.

And the IC50 [25]?
The IC50 was 0.342 µg/mL.

And the IC50 [26]?
Its IC50 is 13 µg/mL.

And the IC50 [27]?
The IC50 was 0.077 µg/mL.

What about the IC50 (pseudovirus neutralization) [28] of the same substance?
The IC50 (pseudovirus neutralization) was 0.217 µg/mL.

And the IC50 (pseudovirus neutralization) [29]?
The IC50 (pseudovirus neutralization) was 1.72 µg/mL.

And the IC50 [30]?
The IC50 was 0.155 µg/mL.

What about the IC50 [31] of the same substance?
Its IC50 is 0.328 µg/mL.

And the IC50 [32]?
Its IC50 is 0.275 µg/mL.

What about the IC50 (pseudovirus neutralization) [33] of the same substance?
Its IC50 (pseudovirus neutralization) is 2.06 µg/mL.

And the IC50 (pseudovirus neutralization) [34]?
Its IC50 (pseudovirus neutralization) is greater than 50 µg/mL.

And the IC50 (pseudovirus neutralization) [35]?
Its IC50 (pseudovirus neutralization) is 0.087 µg/mL.

And the IC50 (pseudovirus neutralization) [36]?
The IC50 (pseudovirus neutralization) was 0.452 µg/mL.

What about the IC50 (pseudovirus neutralization) [37] of the same substance?
Its IC50 (pseudovirus neutralization) is 0.192 µg/mL.

What about the IC50 (pseudovirus neutralization) [38] of the same substance?
Its IC50 (pseudovirus neutralization) is 0.435 µg/mL.

What about the IC50 (pseudovirus neutralization) [39] of the same substance?
The IC50 (pseudovirus neutralization) was 0.377 µg/mL.

And the IC50 (pseudovirus neutralization) [40]?
Its IC50 (pseudovirus neutralization) is 2.86 µg/mL.

What about the IC50 (pseudovirus neutralization) [41] of the same substance?
The IC50 (pseudovirus neutralization) was 0.097 µg/mL.

And the IC50 (pseudovirus neutralization) [42]?
The IC50 (pseudovirus neutralization) was 0.17 µg/mL.

And the IC50 (pseudovirus neutralization) [43]?
The IC50 (pseudovirus neutralization) was 1.89 µg/mL.

And the IC50 (pseudovirus neutralization) [44]?
Its IC50 (pseudovirus neutralization) is 0.163 µg/mL.

What about the IC50 [45] of the same substance?
The IC50 was 0.055 µg/mL.

And the IC50 [46]?
Its IC50 is 0.548 µg/mL.

What about the IC50 [47] of the same substance?
The IC50 was 0.124 µg/mL.

And the IC50 [48]?
Its IC50 is 0.025 µg/mL.

What about the IC50 [49] of the same substance?
Its IC50 is 0.36 µg/mL.

How did the neutralization IC50 [1] turn out when 1495_C14 (PGC14) (antibody) was run?
The neutralization IC50 was 37 µg/mL.

What about the neutralization IC50 [2] of the same substance?
Its neutralization IC50 is greater than 50 µg/mL.

And the neutralization IC50 [3]?
Its neutralization IC50 is 46 µg/mL.

What about the neutralization IC50 [4] of the same substance?
The neutralization IC50 was greater than 50 µg/mL.

What about the neutralization IC50 [5] of the same substance?
Its neutralization IC50 is greater than 50 µg/mL.

What about the neutralization IC50 [6] of the same substance?
The neutralization IC50 was greater than 50 µg/mL.

And the neutralization IC50 [7]?
Its neutralization IC50 is greater than 50 µg/mL.

What about the neutralization IC50 [8] of the same substance?
Its neutralization IC50 is greater than 50 µg/mL.

And the neutralization IC50 [9]?
Its neutralization IC50 is 42 µg/mL.

And the neutralization IC50 [10]?
Its neutralization IC50 is greater than 50 µg/mL.

What about the neutralization IC50 [11] of the same substance?
The neutralization IC50 was greater than 50 µg/mL.

What about the neutralization IC50 [12] of the same substance?
Its neutralization IC50 is greater than 50 µg/mL.

And the neutralization IC50 [13]?
The neutralization IC50 was greater than 50 µg/mL.

And the neutralization IC50 [14]?
The neutralization IC50 was greater than 50 µg/mL.

What about the neutralization IC50 [15] of the same substance?
The neutralization IC50 was greater than 50 µg/mL.

What about the neutralization IC50 [16] of the same substance?
Its neutralization IC50 is greater than 50 µg/mL.

What about the neutralization IC50 [17] of the same substance?
Its neutralization IC50 is greater than 50 µg/mL.

What about the neutralization IC50 [18] of the same substance?
The neutralization IC50 was greater than 50 µg/mL.

What about the neutralization IC50 [19] of the same substance?
The neutralization IC50 was greater than 50 µg/mL.

And the neutralization IC50 [20]?
Its neutralization IC50 is greater than 50 µg/mL.

What about the neutralization IC50 [21] of the same substance?
Its neutralization IC50 is greater than 50 µg/mL.

What about the neutralization IC50 (HIV-1 VLGCA1 Env (HIV-1)) of the same substance?
Its neutralization IC50 is greater than 50 µg/mL.

For 2F5 (antibody), which neutralization IC50 [1] is on record?
The neutralization IC50 was 10.4 µg/mL.

And the neutralization IC50 [2]?
The neutralization IC50 was 39.1 µg/mL.

What about the neutralization IC50 [3] of the same substance?
Its neutralization IC50 is 3.36 µg/mL.

What about the neutralization IC50 [4] of the same substance?
The neutralization IC50 was 4.16 µg/mL.

And the neutralization IC50 [5]?
Its neutralization IC50 is 8.22 µg/mL.

And the neutralization IC50 [6]?
Its neutralization IC50 is 8.63 µg/mL.

And the neutralization IC50 [7]?
Its neutralization IC50 is 3.81 µg/mL.

And the neutralization IC50 [8]?
The neutralization IC50 was 3.24 µg/mL.

What about the neutralization IC50 [9] of the same substance?
Its neutralization IC50 is greater than 50 µg/mL.

And the neutralization IC50 [10]?
The neutralization IC50 was 3.3 µg/mL.

And the neutralization IC50 [11]?
The neutralization IC50 was greater than 50 µg/mL.

What about the neutralization IC50 [12] of the same substance?
The neutralization IC50 was 1.92 µg/mL.

And the neutralization IC50 [13]?
Its neutralization IC50 is greater than 50 µg/mL.

What about the neutralization IC50 [14] of the same substance?
Its neutralization IC50 is 7.37 µg/mL.

What about the neutralization IC50 [15] of the same substance?
Its neutralization IC50 is 15.7 µg/mL.

And the neutralization IC50 [16]?
The neutralization IC50 was 16.3 µg/mL.

What about the neutralization IC50 [17] of the same substance?
The neutralization IC50 was 9.4 µg/mL.

And the neutralization IC50 [18]?
Its neutralization IC50 is 20.8 µg/mL.

What about the neutralization IC50 [19] of the same substance?
The neutralization IC50 was greater than 50 µg/mL.

And the neutralization IC50 [20]?
The neutralization IC50 was 0.66 µg/mL.

And the neutralization IC50 [21]?
The neutralization IC50 was 1.43 µg/mL.

What about the neutralization IC50 (HIV-1 VLGCA1 Env (HIV-1)) of the same substance?
Its neutralization IC50 is 3.9 µg/mL.
